Source: paper doi:10.1101/2021.04.27.441644 (bioRxiv, 2021)
One block for each binder: values may come before it.

Molecular target: filamentous actin (F-actin) (rabbit, UniProt P68135 1-377)
Assay: co-sedimentation

Kd: 20 µM
B1: CLIP-170 CG2-S3 fragment (H1 203-350) (domain or fragment)
chain: GSIKKGERELKIGDRVLVGGTKAGVVRFLGETDFAKGEWCGVELDEPLGKNDGAVAGTRYFQCQPKYGLFAPVHKVTKIGFPSTTPAKAKANAVRRVMATTSASLKRSPSASSLSSMSSVASSVSSRPSRTGLLTETSSRYARKISGT

Kd: ~10 µM
B2: CLIP-170 S2-CG2-S3 fragment (H1 156-350) (domain or fragment)
chain: MVSSSPSTPSNIPQKPSQPAAKEPSATPPISNLTKTASESISNLSEAGSIKKGERELKIGDRVLVGGTKAGVVRFLGETDFAKGEWCGVELDEPLGKNDGAVAGTRYFQCQPKYGLFAPVHKVTKIGFPSTTPAKAKANAVRRVMATTSASLKRSPSASSLSSMSSVASSVSSRPSRTGLLTETSSRYARKISGT

Kd: ~90 µM
B3: CLIP-170 CG2 fragment (H1 206-288) (domain or fragment)
chain: KKGERELKIGDRVLVGGTKAGVVRFLGETDFAKGEWCGVELDEPLGKNDGAVAGTRYFQCQPKYGLFAPVHKVTKIGFPSTTP
